Results from paper PMC6689051.
pKd: −log10 of the molar value.

Columns and labels:
Details in all cases: 10 mM Tris-HCl pH 7.5, 50 mM KCl, 10 mM MgCl2 (10.1 mM MgCl2 + 0.1 mM EDTA), 23 C; nitrocellulose filter binding, 2 nM-2 uM Fab, 30 min
[1] = system: Fab HAVx (synthetic (phage display, humanized Fab4D5 framework, YSGRKX library; expressed in E. coli)), PDB:6MWN_2+PDB:6MWN_3; assay: filter binding
[2] = system: best Fab clone from YSGR library (unnamed) (synthetic (phage display, humanized Fab4D5 framework; expressed in E. coli)); assay: filter binding
[3] = system: P0; assay: method not stated in excerpt

Substance: GGCAAACAUCAUUUGGCCUUAAAUGGGAUUCUGUGAGAGGGGAUCCCUCCAUUGACAGCUGGACUGUUCUUUGGGGCCUUAGUGGUGUUUG [HAV dV delU672]
- pKd [1]: < 6.00

Substance: GGCAAACAUCAUUUGGCCUUAAAUGGGAUUCUGUGAGACGGGAUCCCUCCAUUGACAGCUGGACUGUUCUUUGGGGCCUUAUGUGGUGUUUG [HAV dV G631C]
- pKd [1]: 7.24

Substance: GGCAAACAUCAUUUGGCCUUAAAUGGGAUUCUGUGAGAGGGGAUCCCUCCAUUGACAGCUGGACUGUUCUUUGGGGCCUUAUGUGGUGUUUG [HAV dV (HAV593-684)]
- pKd [1]: 7.36
- pKd [2]: 6.54
- pKd [3]: 6.66

Substance: GGCAAACAUCAUUUGGCCUUAAAUGGGAUUCUGUGAGAGGGGAUCCCUCCAUUGACAGCUGGACUGUUCUUUGGGGCCUAUGUGGUGUUUG [HAV dV delU674]
- pKd [1]: 6.75

Substance: HAV593-706
- pKd [1]: 7.31

Substance: HAV593-720
- pKd [1]: 7.33
